Target: T1, hTLT-1.126-162 (human)
T1 construct: Made by solid phase peptide synthesis; not glycosylated; also called TLT-1 stalk peptide; chain P
T1 peptide: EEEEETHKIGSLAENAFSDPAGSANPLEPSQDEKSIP
Test: crystal structure of the Fab0100:hTLT-1.126-162 complex; complex isolated by gel filtration
Experimental: The complex was subjected to gel filtration using a Superdex 200 HighLoad 26/60 (GE Healthcare) column eluted with PBS-buffer (pH 7.4) at a flow rate of 1 ml/min. Fractions corresponding to a volume of 3 ml were collected.
The crystal was allowed to soak for about 15 seconds, then flash frozen in liquid N₂ and during data collection kept at 100 K by a cryogenic N₂ gas stream. Crystallographic data were subsequently collected to 1.85 Å resolution at beam-line BL911-3 (Ursby, T. et al. (2004) AIP Conference Proceedings 705, 1241-1246) at MAX-lab, Lund, Sweden. Space group determination, integration and scaling of the data were made in the XDS software package. Cell parameters for the synchrotron data were determined to be 82.54, 65.32, 108.05 Å, 90°, 95.15° and 90°, for a, b, c, α, β and γ, respectively, and space group was determined to be C2. Rsym for intensities of the data set was calculated to be 6.7%.

binding result: binds
B1: Fab0100 (Fab, V domains shown)
VH: EVKLLESGGGLVQPGGSLKLSCAASGFDFSRYWMTWVRQAPGKGLEWIGEINPDSSTINYNPSLKDKFIISRDNAKNTLYLQMSEVRSEDTALYYCASGVFTSWGQGTLVTVSA
VL: DVVMTQTPLSLPVSLGDQASISCRSSQSLVHRNGNTYFHWALQKPGQSPKLLIYKVSNRFSGVPDRFSGSGSGTDFTLKISRVEAEDLGVYFCSQSTHVPYTFGGGTKLEIKR
notes: also called anti-TLT-1 Fab; identical to Fab0061

From patent US20190083587A1 (Novo Nordisk, published 2019)
